Here are results for 27 molecules from article PMC9114487, “Generation of a High-Affinity Nanobody Against CD147 for Tumor Targeting and Therapeutic Efficacy Through Conjugating Doxorubicin” (Frontiers in Immunology, 2022).

In test [1] the target is T1, ecto-domain protein of CD147 (Homo sapiens (assumed), isoform 2, UniProt P35613-2, biotin (Sulfo-NHS-LC-Biotin) in the BLI only).
T1 construct: CD147 (EMMPRIN, basigin), ecto-domain protein; also called CD147 protein; EMMPRIN
In words: BLI; ForteBio Octet; biotin-labeled CD147 or C78 immobilized on the sensors (200 s); Nb 11-1 at different concentrations in PBST, 200 s; PBST 100 s; room temperature, shaking 1,000 rpm. The settings on record: both partners purified. On the technique in general: Biolayer interferometry detects binding as a change in optical thickness at a sensor tip.
Target sequence in this assay (P35613 whole entry, looked up, tested part not stated, canonical isoform): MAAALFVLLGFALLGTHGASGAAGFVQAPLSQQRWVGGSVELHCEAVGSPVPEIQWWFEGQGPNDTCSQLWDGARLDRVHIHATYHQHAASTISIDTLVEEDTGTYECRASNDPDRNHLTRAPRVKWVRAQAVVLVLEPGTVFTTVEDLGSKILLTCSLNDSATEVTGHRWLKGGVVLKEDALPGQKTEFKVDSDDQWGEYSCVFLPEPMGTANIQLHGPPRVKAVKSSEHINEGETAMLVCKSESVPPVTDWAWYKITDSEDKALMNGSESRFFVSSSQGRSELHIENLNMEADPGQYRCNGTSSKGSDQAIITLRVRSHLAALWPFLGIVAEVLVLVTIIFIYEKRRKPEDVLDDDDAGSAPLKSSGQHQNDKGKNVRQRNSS

Test [2] deals with C78 (C-terminal ecto-domain protein of CD147). The description is as above.
The target of test [3] is T1, ecto-domain protein of CD147. Kind of test: BLI; kinetics between CD147 and EGFP-11-1 (Figure 3F); who was immobilised is not told for this pair. The following applies: both partners purified.
Target sequence in this assay (P35613 whole entry, looked up, tested part not stated, canonical isoform): as above
For test [4] the target is unchanged.
Target sequence in this assay (P35613 other isoform, or with tags, fused parts or gaps): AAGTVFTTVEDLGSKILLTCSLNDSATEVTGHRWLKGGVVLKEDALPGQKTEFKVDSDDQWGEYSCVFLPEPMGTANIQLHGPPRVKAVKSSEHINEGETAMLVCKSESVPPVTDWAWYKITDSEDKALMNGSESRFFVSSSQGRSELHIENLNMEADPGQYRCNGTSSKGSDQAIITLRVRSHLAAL

Numbering of substitutions follows the chain as printed.

B1: anti-CD147 nanobody 11-1 (VHH)
VHH: QVQLQESGGGSVQAGGSLRLSCAVSGYTYSSCSMDWYRQAPGKERELVSSISSGGNTYYEDSVKGRFTISQDNAKNTVYLQMNSLKPEDTASYYCKMWCPGNKSYWGQGTQVTVSS
notes: Selected by phage display from an immune VHH library; The immunised animal is called an alpaca in the methods, a camel in the results and a Bactrian camel in the discussion; About 13 kDa by SDS-PAGE; Surmise: pET-15b usually adds an N-terminal His tag; also called Nb 11-1; anti-CD147-VHH Nb (11-1); source: E. coli BL21(DE3), pET-15b, purified (His-Trap HP column)
In test [1], B1 came in with a Kd of 0.636 nM, a koff of 2.2e-05 s⁻¹ and a kon of 34600 M⁻¹ s⁻¹. In test [2], this molecule displayed a Kd of 1.78 nM, a koff of 0.000104 s⁻¹ and a kon of 58200 M⁻¹ s⁻¹.

B2: EGFP-VHH fusion protein EGFP-11-1 (VHH)
VHH: B1 VHH
notes: as the VHH of m1; About 40 kDa by SDS-PAGE; also called 11-1-EGFP; EGFP-11-1 Nbs; source: E. coli BL21(DE3), pET-25b, purified (His-Trap HP column); not shown: EGFP, C-terminal, kept
As to B2, binding in test [3] was characterised by a dissociation constant (Kd) of 11.1 nM. This lies in the double-digit nanomolar range.

B3: V-4 (VHH)
VHH: B1 VHH with A23S, Y27G, Y29F, Y37F, E44V, N76T, S92M, W98F, G101W
Consider B3, for which the binding result in test [4] was “binds”.

B4: V-10 (VHH)
VHH: B1 VHH with A23S, Y27S, Y29F, Y37F, E46G, S92M
With B4, the binding result in test [4] is listed as “binds”.

B5: V-17 (VHH)
VHH: B1 VHH with Q81R, S92I, G101W
B5: in test [4], the binding result is reported as “binds”.

B6: V-24 (VHH)
VHH: QVQLQESGGGLVLPGGSLRLSCAAFGFIFSDFDMSWVRQAPGKGLEWVSSISRYGRTSSADSVKGRFTISRDNAKNTLYLQMHSLKTDDTAVYYCATGNFCSGGRCYIDRGQGTQVTVSS
Regarding B6, the binding result in test [4] is reported as “binds”.

B7: V-25 (VHH)
VHH: B6 VHH with L13Q, D31N, Q81E, H83N, T87S, D88A, D109N
Take B7: in test [4], the binding result is recorded as “binds”.

B8: V-29 (VHH)
VHH: B6 VHH with L13Q, D31N, F32Y, L45F, S59N, S62A, H83N, D109N
Turning to B8, in test [4], the binding result is given as “binds”.

B9: V-28 (VHH)
VHH: B6 VHH with L11S, L13Q, P14A, D31N, F32Y, H83N, A96T, I108S, D109N
Turning to B9, the binding result in test [4] was “binds”.

B10: V-26 (VHH)
VHH: B6 VHH with L11S, L13Q, P14A, D31N, F32Y, L45F, S59N, S62A, H83N, D109N
For the molecule B10, the binding result in test [4] is “binds”.

B11: V-27 (VHH)
VHH: B6 VHH with L13Q, D31N, F32Y, H83N
Regarding B11, the binding result in test [4] was “binds”.

B12: V-1 (VHH)
VHH: QVQLQESGGGSVQAGGSLRLSCRASGYTFSRHCMGWFRQGPGKEREVVATIYTFNGRTYYADSVKGRFTVSQDNAQNSLYLQMDSLKPEDTAMYYCAAARIGWTSVSGSCPRMGDVNKYWGQGTQVTVSS
B12: in test [4], the binding result is given as “binds”.

B13: V-13 (VHH)
VHH: B12 VHH with R31E, V70I
B13: the binding result in test [4] is on record as “binds”.

B14: V-14 (VHH)
VHH: B12 VHH with V70I
For B14, the binding result in test [4] was “binds”.

B15: V-3 (VHH)
VHH: B12 VHH with S17T, A24V, Y59S, V70I, M93T, V116E
For B15, the binding result in test [4] was “binds”.

B16: V-19 (VHH)
VHH: B12 VHH with S25P, K43E, Y59T, V70I, V106A, V116E
Consider B16, for which the binding result in test [4] is reported as “binds”.

B17: V-22 (VHH)
VHH: B12 VHH with G40T, R57H, V70I
As for B17, the binding result in test [4] is “binds”.

B18: V-23 (VHH)
VHH: B12 VHH with R31E, V47L, T50S, V70I
With B18, the binding result in test [4] is recorded as “binds”.

B19: V-2 (VHH)
VHH: B12 VHH with R57H, V70I, A75P, Y80T
On to B19, for which, in test [4], the binding result is “binds”.

B20: V-11 (VHH)
VHH: B12 VHH with V47L, T50S, V70I, V116E
On to B20, for which the binding result in test [4] is on record as “binds”.

B21: V-5 (VHH)
VHH: QVQLQESGGGSVQAGETLTLSCTASGYTFSSSNCMGWFRQAPGQEREDVAIISVRGGITYYADSVKGRFTISRDNAKNTLSLQMNSLKPEDTAVYYCAADNPKYRDLYNAHCNWSYRYWGQGTQVTVSS
As to B21, the binding result in test [4] is “binds”.

B22: V-21 (VHH)
VHH: B21 VHH with E16G, T17S, T19R, T23A, Q44K, N75S, P89S, D106Q, Y108S
As to B22, the binding result in test [4] is on record as “binds”.

B23: V-9 (VHH)
VHH: B21 VHH with E16G, T17S, T19R, T23A, A62V, S86N, N109D
With B23, the binding result in test [4] is “binds”.

B24: V-18 (VHH)
VHH: B21 VHH with E16G, T17S, T19R, T23A, Q44K, A62T, S86N, E90D, N109G
As to B24, the binding result in test [4] is recorded as “binds”.

B25: V-7 (VHH)
VHH: B21 VHH with E16G, T17S, T19R, T23A, Q44K, N75S, D106A, Y108S, N109D
Turning to B25, the binding result in test [4] is recorded as “binds”.

B26: V-15 (VHH)
VHH: B21 VHH with V12A, E16G, T17S, T19R, T23A, Q44K, D48G, N109D
For the molecule B26, the binding result in test [4] is recorded as “binds”.

B27: V-20 (VHH)
VHH: B21 VHH with E16G, T17S, T19R, T23A, A62V, S86N, Y108H, N109G, A110G
In the case of B27, the binding result in test [4] is reported as “binds”.

As usually defined, the Kd is the concentration at which binding is half-saturated. A high value points to a looser complex. By koff is commonly meant the rate constant with which the complex falls apart. As usually defined, the kon is the second-order rate constant of association. Low values mean slow association, high ones fast association.
